# From the supplement of paper PMC12042874
# ± gives the uncertainty stated by the source.
# Test: amyloid nucleation score (Sup35N fusion, yeast selection) (log enrichment); library NNK3; higher = more nucleation; inactive = no reads after selection
# Summary of the method: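 Sup35N was fused to peptides of 20 random codons and expressed in psi-negative yeast, which were induced with 100 μM copper sulfate for 24 hours and then grown on medium lacking adenine and uracil for 7 days at 30°C. Plasmid inserts from input and output were sequenced on Illumina. The nucleation score is the DiMSum log enrichment of output over input reads, centred on the mode score of non-aggregating sequences. Sequences with under 100 input reads were left out, and random libraries had three technical output replicates.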
row,Substance,amyloid nucleation score
1,KGMFLVMSRLCPFISWSRSQ,inactive
2,RSVSNVFRLCLDAWGKVRRH,inactive
3,HYFGKT,inactive
4,SFLYDSVNANLNSTCCCGYI,-0.913 ± 0.9
5,NISVLIRCLWNFSEGKAFLA,inactive
6,LCFNCGVFCFFFRVGETTNW,2.84 ± 0.056
7,YRTRESGLY,-0.425 ± 1.1
8,VLADCWRSGIHWIGHTYLIN,inactive
9,YYFHRFL,inactive
10,CFYSNQASQVLLLYHP,0.771 ± 0.2
11,GLDHSKGYLQLS,inactive
12,LSVSYTLALTALLRHRERVW,inactive
13,VWGLKFTRFVNTQLRRYPTL,inactive
14,AKWCVF,-0.714 ± 2.4
15,YRNSC,inactive
16,TGMFL,-0.004 ± 0.2
17,KEGNGMSFYN,inactive
18,PYFFSLRNPRI,inactive
19,EHVKRVRIWNSVNLVIEYMA,0.635 ± 0.19
20,DNVNYPPVSYQTAG,inactive
21,VLFFSAYWMFQKVGVLVPSK,inactive
22,ERMRLNARFSTHLE,inactive
23,MRTRGQTFTWGHYGCLLIDE,inactive

row,Substance,amyloid nucleation score
1,RLLPFIGIYNFSKKWLSKAL,-0.313 ± 0.75
2,RNNDVSEVKMLMKRELGFYN,inactive
3,IFIQLSDLMQSKVAHECGWC,inactive
4,LHKALQYTKTLSESRRLCNR,inactive
5,NTLGGRLLSLCARGMAIDCL,0.625 ± 0.35
6,LMFRTLFK,0.062 ± 0.62
7,FSFWTTSN,inactive
8,IKVSECMSAYIVVFWYRMVV,inactive
9,GATNDH,inactive
10,KHSVSLECRIRSAGDTVGWF,inactive
11,CTGLECIGTAYRQGGDRVLW,inactive
12,FGRQVSDGVASFMSNTSLYR,inactive
13,DWNYNTLQLSSPVGAGLTKN,inactive
14,YLYSCDSFCFLDPRYMRCPE,inactive
15,YSYANSMNMGMMFMGRLGW,inactive
16,AGCIGFNVFEH,inactive
17,MRCSDGPPKWNHD,-0.277 ± 0.88
18,LCGSKICFLDSYDVESLISR,inactive
19,IYVLNLMLFVFCRNVLCDGY,inactive
20,SFTIIMALCSV,inactive
21,GMRFRCKRYVCVLQ,-0.078 ± 0.98
22,RVMRHLFHFVCNKSLDYWYR,inactive
23,SLDKSMSGKRSLVRADSTLS,-0.046 ± 0.88

row,Substance,amyloid nucleation score
1,KASWRMLC,inactive
2,RPNFDYTIWSMTNWILFTCD,inactive
3,EMRSFVGNSCI,-0.613 ± 1.5
4,GTIMMWLGVQRVLTASGKGG,inactive
5,NLFYNEEDVLIQFVYQRTIW,inactive
6,LKLWYPLSFIDVRAPRA,inactive
7,VHLYEFRLNAACSCPSDRYG,inactive
8,MGVIMEGMRFFFVWMQM,inactive
9,CLSSSINMTMVYCCNSLMFG,2.13 ± 0.069
10,RNGIVGD,inactive
11,ATTADLDRCSLFPKLRILRG,inactive
12,ERFSFVLVNGVRYFRSNLRW,inactive
13,FLDIRMMIRRLTGGPESVSL,inactive
14,GLSYNFHLCQVLVIFMVDGS,1.66 ± 0.1
15,EGRRPKYIGNESRYNMYHPY,inactive
16,LGVCVWQCLGMSIVNALKRL,inactive
17,FLANGSDWIFLWFRIHVDHF,inactive
18,KCTGYAGCCWWT,inactive
19,NLSALMLLLQDRDRAISRPR,0.919 ± 0.21
20,VFVVLLALSYGSDNTV,inactive
21,VYWFKELADSITRCVKNYIY,inactive
22,CPNVYIAIPIFS,-0.423 ± 0.63
23,TGHWNSDWFLI,inactive

row,Substance,amyloid nucleation score
1,NKAYCWTLYLGMINDCIRFY,inactive
2,IVKVLNGFKTRVSSVCVTNG,inactive
3,SLVAFPLFAGCVIW,inactive
4,FFARSHAVIINFFCTH,2.72 ± 0.066
5,NMRKLVCDMEIWMIFCAKSN,0.505 ± 0.28
6,LSVHTLHNG,inactive
7,RVWMIGGYSDLFHWNSVLVS,inactive
8,YSYAQMSLMEQQMLIRT,inactive
9,RLVVLMCCIGYFGPADMNFA,2.66 ± 0.08
10,IELLCGLDIT,inactive
11,DGNKNYDVKFIRLVTNI,inactive
12,RTAVVWV,inactive
13,FNLNESSGYVKFYLNGNRPL,inactive
14,SYAQGH,0.901 ± 0.18
15,YISSVQGCPMEGGLPKSSAS,inactive
16,NVTDVMRNISMTQLMFYLFA,1.74 ± 0.062
17,ELDMLRYEVMVCNHDDGLCE,inactive
18,LRVILQLYIEGLIVQ,inactive
19,VQWCQDAFVIV,inactive
20,DVNIRSSGDNTIAFKYYTMK,0.14 ± 0.38
21,NLAYTMRGTELICTYVSILP,inactive
22,MASFSRHVCMYGTLNLSGNA,inactive
23,MHHVLYERERSY,inactive

row,Substance,amyloid nucleation score
1,FFLTLGYVVGYQRWSYILWR,inactive
2,TSGHVVTMEHRLLYVPTIGF,inactive
3,SLAAIYSFVYFSSDVIRSHY,1.34 ± 0.15
4,VIGVNIWSCL,1.29 ± 0.1
5,TLLRLHQVAY,inactive
6,CYTIRLWARLNLCRGIKS,-0.439 ± 1.1
7,TFVVGRVITWKNQVCL,inactive
8,HSMLDFFST,inactive
9,DCKMRIEICDMGLCTEHRKC,inactive
10,VCIRTFLSLVSDCNACWSQL,inactive
11,NGLGSTRMNQGHKLVFTNSI,inactive
12,GCASRLFVGWRGSCRMCGTY,inactive
13,YMSYRSLMNSLTSIL,inactive
14,NKKSSAMYCQGIFLTFILLV,inactive
15,LKDWVRYGVEIQAVSMGILV,0.221 ± 0.16
16,LTSVMIFVLVRIELPNQTLS,inactive
17,NMWWNGSETNCESRVFEIET,inactive
18,YEVPFSNASWRDGQMRCRCS,inactive
19,IVRMNQCSMGCLRVAMSSS,inactive
20,SYYITLHWIVASGSYSADNT,0.454 ± 0.14
21,FGFCCKAPCVGSLWVPSVVT,inactive
22,DRDGQPAWHLS,inactive
23,WAGESLS,inactive

row,Substance,amyloid nucleation score
1,GNCLIRLTYR,inactive
2,WCKCYMSSSWTC,inactive
3,FVSGYVVALCYPWQGCPGVC,1.97 ± 0.093
4,ACCIAGL,inactive
5,SKKSRSLNWFLLVNRTPDAG,inactive
6,VNQVVM,inactive
7,LYYMKVIGTFRISEAILLYL,inactive
8,SMSAMYDSAIVV,inactive
9,NMHRNSSIRDRSVIRTWGMV,inactive
10,ISLKSLFVFHNLSVDIWVQR,inactive
11,CVSFNLVSWVFNYCS,2.55 ± 0.056
12,FWWKSYFFNLKV,inactive
13,SCYFGILQWSQSPYFHCPFT,inactive
14,YCSIMYVCNKILFNAAKARL,inactive
15,MFVWHSC,inactive
16,RNSKLSCNVDTKSCFVECMN,inactive
17,PRDCS,inactive
18,PFRVLLQGIKDAPSKFIDSG,inactive
19,MKNRYLNRCTLVANAFGLKE,inactive
20,PTFNRAMTWYFKFLFHYAHD,inactive
21,LWRWKYRAILKRYEKERVGR,inactive
22,ILLIVL,1.68 ± 0.061
23,WPAVEKSLRRECFIVLRPFG,inactive

row,Substance,amyloid nucleation score
1,RTPHELKFRCSFQKVWQGMV,inactive
2,YIFRIHGPLPILHTRYPIRR,inactive
3,ELLLMCIDDVSMRFITPLEY,inactive
4,GLLVWQCMWGLDKKYLHSVY,inactive
5,PQTWVTWKIWYLGFGVAVGV,inactive
6,TDVDNGLYRIDNLMARAKVY,inactive
7,EFFHNYVINMERYNCVLVRM,inactive
8,WYGLA,inactive
9,TCLWGYALFICMNSRWGMRW,inactive
10,LTKGQ,inactive
11,LASIHCVHLMRTYVRVQPPM,0.87 ± 0.26
12,STQCFDELMYA,inactive
13,LGFFSSSKLLVGGASASIVS,inactive
14,LLYVKFIVPYTTM,inactive
15,MCQKQHQYQVTAIRTYMIRF,inactive
16,AGNIACVLSLCTYNARYRTR,3.19 ± 0.068
17,SDNFLRNSLSQEYVRQTLGQ,inactive
18,ITARLVTS,inactive
19,SFFESCF,inactive
20,NFLYWHRWVVWSSMSSYRKP,-0.348 ± 0.63
21,IWWVSK,inactive
22,LRSWPVLHSAISTND,inactive
